The assay addresses T1, FGF-5 (Homo sapiens, UniProt P12034).
T1 construct: host or cells: FGF-5 added exogenously to NR6R-3T3 murine fibroblasts
T1 sequence (P12034 21-268): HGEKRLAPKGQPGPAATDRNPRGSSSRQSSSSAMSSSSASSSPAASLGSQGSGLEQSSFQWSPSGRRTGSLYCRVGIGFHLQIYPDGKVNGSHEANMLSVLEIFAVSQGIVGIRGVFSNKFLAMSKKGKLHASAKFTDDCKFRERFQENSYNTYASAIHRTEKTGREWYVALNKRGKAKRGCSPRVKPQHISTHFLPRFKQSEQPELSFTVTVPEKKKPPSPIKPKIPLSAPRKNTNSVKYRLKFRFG
Description: BLA binding assay on FGF-5 coated plates, nitrocefin readout. Conditions: purified peptide-BLA fusions at 0.1 nM, bound to FGF-5. The procedure: This Example describes secondary screening methods used to analyze FGF-5 binding npeptides. Individual clones were picked and grown up in 5 ml LB+5 ppm CMP overnight at 37° C. The cell pastes were then treated with 125μ of B-PER reagent (Pierce) for 30 min with slow mixing. COSTAR plates (96-well) were coated with 0.1 μg (100 μl of 1 μg/ml) FGF-5, carrier-free (R&D Systems #237-F5/CF, Lot #GQ18304A) with gentle rocking at 4° C. overnight, followed by blocking with Superblock blocking buffer (Pierce) for several hours at room temperature. Then, 100 μl B-Per treated supernatant from individual clones from pGV02-L were added to the FGF-5 coated plates. After one hour, plates were washed six times with PBS, 0.05% TWEEN®-20 and 200 μl of nitrocefin assay buffer containing 0.1 mg/ml nitrocefin (Oxoid) was added to measure residual bound beta-lactamase activity, using Abs490/min. Control wells contained pCB04 (See, FIG. 1C) beta-lactamase as a control. […]
Cell pastes were harvested from the 200 ml cell cultures described in Example 6, by centrifugation at 3,000×g for 10 min. […] BLA activity of all liquid fractions was assayed using nitrocefin, and the concentration of fusion proteins in each fraction was calculated assuming the same specific activity as the WT enzyme. […]

B1: WT (wild-type): Wild-type BLA (E. cloaceae beta-lactamase) without peptide, control for binding of the fusions (protein)
chain: TPVSEKQLAEVVANTITPLMKAQSVPGMAVAVIYQGKPHYYTFGKADIAANKPVTPQTLFELGSISKTFTGVLGGDAIARGEISLDDAVTRYWPQLTGKQWQGIRMLDLATYTAGGLPLQVPDEVTDNASLLRFYQNWQPQWKPGTTRLYANASIGLFGALAVKPSGMPYEQAMTTRVLKPLKLDHTWINVPKAEEAHYAWGYRDGKAVRVSPGMLDAQAYGVKTNVQDMANWVMANMAPENVADASLKQGIALAQSRYWRIGSMYQGLGWEMLNWPVEANTVVEGSDSKVALAPLPVAEVNPPAPPVKASWVHKTGSTGGFGSYVAFIPEKQIGIVMLANTSYPNPARVEAAYHILEALQ
With B1, the “Percent Bound at 0.1 nM” value came to 0.4%.

Values taken from US7485618B2, “FGF-5 supported and binding peptides” (Genencor International, Inc., priority 2003, dated 2009).
